Reference: patent US10538583 (dated 2020)

What was measured:
human ApoC3 [1] = target: human ApoC3 (human); assay: SPR pH 5.5
human ApoC3 [2] = target: human ApoC3 (human); assay: SPR pH 7.4, antibody immobilized
human ApoC3 [3] = target: human ApoC3 (human); assay: SPR pH 5.5, antibody immobilized
human ApoC3 [4] = target: human ApoC3 (human); assay: SPR pH 7.4

Sequence of human ApoC3 (human) (chain, as listed by the source): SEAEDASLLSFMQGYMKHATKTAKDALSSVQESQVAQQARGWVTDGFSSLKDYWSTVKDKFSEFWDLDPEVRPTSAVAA

Row | Binder | Kd (human ApoC3 [1]) | Kd (human ApoC3 [2]) | Kd (human ApoC3 [3]) | Kd (human ApoC3 [4])
1 | mAb2 (antibody, V domains shown) VH: QLVESGGGLVQPGGSLRLSCAASGFTFGTYSMRWVRQVPGKGLEWVSSIHTEGGGTAYRDSVKGRFTISRDNAKNTLYLQMNSLRAEDTAIYYCVIAGYSDWGQGTLVTVSS VL: DIVMTQSPLSLPVTPGESASISCKTSQGLVHSDGKTYFYWFLQKPGQSPQQLIYQVSNRASGVPDRFSGSGSGTDFTLKISRVKAEDAGVYYCAHGTYYPHTFGQGTRLEIK | 0.283 nM | 103 nM | 290 nM | 0.0552 nM
2 | mAb10 (antibody, V domains shown) VH: QLVESGGGLVQPGGSLRLSCAASGFTFSTYSMRWVRQVPGKGLEWVSSIHTEGGGTAYRDSVKGRFTISRDNAKNTLYLQMNNLRAEDTAVYYCVIAGYSDWGQGTLVTVSS VL: DIVMTQSPLSLSVVPGEPASISCKTSQGLVHSDGKTYFYWFLQKPGQSPQQLIYQVSNRASGVPDRFSGSGSGTDFTLKISRVEAEDVGVYYCAHGTYYPHTFGQGTRLEIK | 0.27 nM | 189 nM | 334 nM | 0.0956 nM
3 | mAb6 (antibody, V domains shown) VH: QLVESGGGLVQPGGSLRLSCAASGFTFGTYSMRWVRQAPGKGLEWVSSIHTEGGGTAYRDSVKGRFTISRDNAKNTLYLQMNSLRAEDTAVYYCVIAGYSDWGQGTLVTVSS VL: DIVMTQSPLSLPVTPGESASISCKTSQGLVHSDGKTYFYWFLQKPGQSPQQLIYQVSNRASGVPDRFSGSGSGTDFTLKISRVKAEDAGVYYCAHGTYYPHTFGQGTRLEIK | 0.347 nM | 165 nM | 861 nM | 0.0599 nM
4 | mAb9 (antibody, V domains shown) VH: QLVESGGGLVQPGGSLRLSCAASGFTFSTYSMRWVRQAPGKGLEWVSSIHTDAGGTAYRDSVKGRFTISRDNAKNTLYLQMNNLRAEDTAVYYCVIAGYSDWGQGTLVTVSS VL: DIVMTQSPLSLSVTPGEPASISCKTSQGLVHSDGKTYFYWFLQKPGQSPQQLIYQVSNRASGVPDRFSGSGSGTDFTLKISRVEAEDVGVYYCAHGTYYPHTFGQGTRLEIK | 0.759 nM | 232 nM | 541 nM | 0.149 nM
5 | mAb8 (antibody, V domains shown) VH: QLVESGGGLVQPGGSLRLSCAASGFTFSTYSMRWVRQAPGKGLEWVSSIHTDAGGTAYRDSVKGRFTISRDNAKNTLYLQMNNLRAEDTAVYYCVIAGYSDWGQGTLVTVSS VL: DIVMTQSPLSLSVVPGEPASISCKTSQGLVHSDGKTYFYWFLQKPGQSPQQLIYQVSNRASGVPDRFSGSGSGTDFTLKISRVEAEDVGVYYCAHGTYYPHTFGQGTRLEIK | 0.749 nM | 241 nM | 242 nM | 0.102 nM
6 | mAb4 (antibody, V domains shown) VH: QLVESGGGLVQPGGSLRLSCAASGFTFGTYSMRWVRQAPGKGLEWVSSIHTEGGGTAYRDSVKGRFTISRDNAKNTLYLQMNSLRAEDTAIYYCVIAGYSDWGQGTLVTVSS VL: DIVMTQSPLSLPVTPGESASISCKTSQGLVHSDGKTYFYWFLQKPGQSPQQLIYQVSNRASGVPDRFSGSGSGTDFTLKISRVKAEDAGVYYCAHGTYYPHTFGQGTRLEIK | 0.374 nM | 124 nM | 432 nM | 0.00464 nM
7 | mAb3 (antibody, V domains shown) VH: QLVESGGGLVQPGGSLRLSCAASGFTFGTYSMRWVRQAPGKGLEWVSSIHTEGGGTAYRDSVKGRFTISRDNAKNTLYLQMNSLRAEDTAIYYCVIAGYSDWGQGTLVTVSS VL: DIVMTQSPLSLPVTPGESASISCKTSQGLVHSDGKTYFYWFLQKPGQSPQQLIYQVSNRASGVPDRFTGSGSGTDFTLKISRVKAEDAGVYYCAHGTYYPHTFGQGTRLEIK | 0.351 nM | 174 nM | 323 nM | 0.11 nM
8 | mAb1 (antibody, V domains shown) VH: QLVESGGGLVQPGGSLRLSCAASGFTFGTYSMRWVRQVPGKGLEWVSSIHTEGGGTAYRDSVKGRFTISRDNAKNTLYLQMNSLRAEDTAIYYCVIAGYSDWGQGTLVTVSS VL: DIVMTQSPLSLPVTPGESASISCKTSQGLVHSDGKTYFYWFLQKPGQSPQQLIYQVSNRASGVPDRFTGSGSGTDFTLKISRVKAEDAGVYYCAHGTYYPHTFGQGTRLEIK | 0.237 nM | 73.9 nM | 253 nM | 0.0454 nM
9 | mAb7 (antibody, V domains shown) VH: QLVESGGGLVQPGGSLRLSCAASGFTFSTYSMRWVRQAPGKGLEWVSSIHTGGGGTAYRDSVKGRFTISRDNAKNTLYLQMNNLRAEDTAIYYCVIAGYSDWGQGTLVTVSS VL: DIVMTQSPLSLPVTPGESASISCKTSQGLVHSDGKTYFYWFLQKPGQSPQQLIYQVSNRASGVPDRFSGSGSGTDFTLKISRVKAEDAGVYYCAHGTYYPHTFGQGTRLEIK | 4.89 nM | 247 nM | 583 nM | 0.0928 nM
10 | mAb5 (antibody, V domains shown) VH: QLVESGGGLVQPGGSLRLSCAASGFTFGTYSMRWVRQAPGKGLEWVSSIHTEGGGTAYRDSVKGRFTISRDNAKNTLYLQMNSLRAEDTAVYYCVIAGYSDWGQGTLVTVSS VL: DIVMTQSPLSLPVTPGESASISCKTSQGLVHSDGKTYFYWFLQKPGQSPQQLIYQVSNRASGVPDRFTGSGSGTDFTLKISRVKAEDAGVYYCAHGTYYPHTFGQGTRLEIK | 0.345 nM | 181 nM | 408 nM | 0.148 nM

The remaining lines, values ahead:

Row | Kd (human ApoC3 [1]) | Kd (human ApoC3 [2]) | Kd (human ApoC3 [3]) | Kd (human ApoC3 [4]) | Binder
11 | 0.342 nM | 62.4 nM | 257 nM | 0.0464 nM | mAb17 (antibody, V domains shown) VH: QLVESGGGLVQPGGSLRLSCAASGFTFSTYSMRWVRQAPGKGLEWVSSIHTEAGGTAYRDSVKGRFTISRDNAKNTLYLQMNNLRAEDTAVYYCVIAGYSDWGQGTLVTVSS VL: DIVMTQSPLSLPVTPGEPASISCKTSQGLVHSGGKTYFYWFLQKPGQSPQQLIYQVSNRASGVPDRFTGSGSGTDFTLKISRVEAEDAGVYYCAQGTYYPHTFGQGTRLEIK
12 | 7.44 nM | 596 nM |  | 0.687 nM | mAb16 (antibody, V domains shown) VH: QLVESGGGLVQPGGSLRLSCAASGFTFGTYSMRWVRQAPGKGLEWVSSIHTEAGGTAYRDSVKGRFTISRDNAKNTLYLQMNNLKAEDTAIYYCVIAGYSDWGQGTQVTVSS VL: DIVMTQSPLSLPVTPGESASISCKTSQGLVHSGGKTYFYWFLQKPGQSPQQLIYQVSNRASGVPDRFTGSGSGTDFTLKISRVEAEDAGVYYCAHGTYYPHTFGSGTRLEIK
13 | 0.331 nM | 129 nM | 503 nM | 0.173 nM | mAb11 (antibody, V domains shown) VH: QLVESGGGLVQPGGSLRLSCAASGFTFSTYSMRWVRQVPGKGLEWVSSIHTEGGGTAYRDSVKGRFTISRDNAKNTLYLQMNNLRAEDTAVYYCVIAGYSDWGQGTLVTVSS VL: DIVMTQSPLSLSVTPGEPASISCKTSQGLVHSDGKTYFYWFLQKPGQSPQQLIYQVSNRASGVPDRFSGSGSGTDFTLKISRVEAEDVGVYYCAHGTYYPHTFGQGTRLEIK
14 | 9.44 nM | 1340 nM |  | 0.586 nM | mAb20 (antibody, V domains shown) VH: QLVESGGGLVQPGGSLRLSCAASGFTFSTYSMRWVRQAPGKGLEWVSSIHTDAGGTAYRDSVKGRFTISRDNAKNTLYLQMNNLRPEDTAVYYCVIAGYSDWGQGTLVTVSS VL: DIVMTQSPGSLSVTPGEPASISCKTSQGLVHSGGKTYFYWFLQKPGQSPQQLIYQVSNRASGVPDRFTGSGSGTDFTLKISGVEAEDAGVYYCAHGTYYPHTFGQGTRLEIK
15 | 0.353 nM | 34.7 nM | 86.2 nM | 0.00538 nM | mAb15 (antibody, V domains shown) VH: QLVESGGGLVQPGGSLRLSCAASGFTFGTYSMRWVRQAPGKGLEWVSSIHTEAGGTAYRDSVKGRFTISRDNAKNTLYLQMNNLKAEDTAIYYCVIAGYSDWGQGTQVTVSS VL: DIVMTQSPLSLPVTPGESASISCKTSQGLVHSGGKTYFYWFLQKPGQSPQQLIYQVSNRASGVPDRFTGSGSGTDFTLKISRVEAEDAGVYYCAQGTYYPHTFGSGTRLEIK
16 | 5.56 nM | 1000 nM |  | 4.19 nM | mAb13 (antibody, V domains shown) VH: QLLESGGGLVQPGGSLRLSCAASGFTFSTYSMRWVRQVPGKGLEWVSSIHTEGGGTAYRDSVKGRFTISRDNSKNTLYLQMNSLRAEDTAVYYCVIAGYSDWGQGTLVTVSS VL: DIVMTQSPLSLPVTPGEPASISCKTSQGLVHSDGKTYFYWYLQKPGQSPQLLIYQVSNRASGVPDRFSGSGSGTDFTLKISRVEAEDVGVYYCAHGTYYPHTFGQGTRLEIK
17 | 8.62 nM | 509 nM |  | 1.33 nM | mAb18 (antibody, V domains shown) VH: QLVESGGGLVQPGGSLRLSCAASGFTFSTYSMRWVRQAPGKGLEWVSSIHTEAGGTAYRDSVKGRFTISRDNAKNTLYLQMNNLRAEDTAVYYCVIAGYSDWGQGTLVTVSS VL: DIVMTQSPLSLPVTPGEPASISCKTSQGLVHSGGKTYFYWFLQKPGQSPQQLIYQVSNRASGVPDRFTGSGSGTDFTLKISRVEAEDAGVYYCAHGTYYPHTFGQGTRLEIK
18 | 21.3 nM | 1760 nM |  | 2.96 nM | mAb14 (antibody, V domains shown) VH: QLLESGGGLVQPGGSLRLSCAASGFTFGTYSMRWVRQVPGKGLEWVSSIHTEGGGTAYRDSVKGRFTISRDNSKNTLYLQMNSLRAEDTAVYYCVIAGYSDWGQGTLVTVSS VL: DIVMTQSPLSLPVTPGEPASISCKTSQGLVHSDGKTYFYWYLQKPGQSPQLLIYQVSNRASGVPDRFSGSGSGTDFTLKISRVEAEDVGVYYCAHGTYYPHTFGQGTRLEIK
19 | 0.417 nM | 35.5 nM | 157 nM | 0.0453 nM | mAb19 (antibody, V domains shown) VH: QLVESGGGLVQPGGSLRLSCAASGFTFSTYSMRWVRQAPGKGLEWVSSIHTDAGGTAYRDSVKGRFTISRDNAKNTLYLQMNNLRPEDTAVYYCVIAGYSDWGQGTLVTVSS VL: DIVMTQSPGSLSVTPGEPASISCKTSQGLVHSGGKTYFYWFLQKPGQSPQQLIYQVSNRASGVPDRFTGSGSGTDFTLKISGVEAEDAGVYYCAQGTYYPHTFGQGTRLEIK
